Legend:
[1] = target: BgaA β-galactosidase (Bbr_0010) (B. breve UCC2003); test: SEC-MALS; Superose 6 10/300 G/L, 50 mM Tris-HCl, 150 mM NaCl, pH 7.5, 0.5 mL/min; dual-angle light scattering (RALS/LALS) and refractometer (OmniSec REVEAL); protein concentrations in Supplementary Table 1; native mass compared with the calculated monomer mass (with His-tag)
[2] = target: BgaD β-galactosidase (B8809_0415) (B. longum subsp. longum NCIMB 8809); test: as above
[3] = tested on: O=[N+]([O-])c1ccccc1O[C@@H]1O[C@H](CO)[C@H](O)[C@H](O)[C@H]1O; test: o-nitrophenol release, A420; format: biochemical, Bifidobacterium longum subsp. longum; settings: 0.1 M sodium acetate pH 6.5, 40 °C, unit mM, not in table
Excerpt: o-nitrophenol release, A420 on BgaF

[4] = target: BgaG β-galactosidase (Blon_2016) (B. longum subsp. infantis ATCC 15697); test: SEC-MALS; Superose 6 10/300 G/L, 50 mM Tris-HCl, 150 mM NaCl, pH 7.5, 0.5 mL/min; dual-angle light scattering (RALS/LALS) and refractometer (OmniSec REVEAL); protein concentrations in Supplementary Table 1; native mass compared with the calculated monomer mass (with His-tag)
[5] = target: BgaB β-galactosidase (Bbr_0529) (B. breve UCC2003); test: as above
[6] = target: BgaC β-galactosidase (B216_08266) (B. bifidum LMG 13195); test: as above
[7] = target: BgaE β-galactosidase (B8809_0611) (B. longum subsp. longum NCIMB 8809); test: as above

Substance: BgaA β-galactosidase (Bbr_0010) (enzyme)
- stoichiometry N [1]: 2

Substance: BgaD β-galactosidase (B8809_0415) (enzyme)
- stoichiometry N [2]: 3

Substance: BgaF (Bifidobacterium longum subsp. longum)
- Km [3]: 5.178 mM

Substance: BgaG β-galactosidase (Blon_2016) (enzyme)
- stoichiometry N [4]: 3

Substance: BgaB β-galactosidase (Bbr_0529) (enzyme)
- stoichiometry N [5]: 3

Substance: BgaC β-galactosidase (B216_08266) (enzyme)
- stoichiometry N [6]: 3

Substance: BgaE β-galactosidase (B8809_0611) (enzyme)
- stoichiometry N [7]: 4
